Data set [1] deals with T1, His-MIF (His-tag/T7 gene 10 leader/Xpress-MIF fusion) (UniProt P14174 P14174:1-115).
T1 chain: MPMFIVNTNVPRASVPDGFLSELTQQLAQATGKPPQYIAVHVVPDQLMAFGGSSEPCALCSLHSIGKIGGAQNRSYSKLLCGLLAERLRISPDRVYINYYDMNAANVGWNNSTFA
Kind of data set: SPR; 600 nM His-MIF; data not shown. To be noted: MIF 115 aa; ATGen.

The target in data set [2] is T1, His-MIF (His-tag/T7 gene 10 …). The data set is described as follows: SPR; 600 nM His-MIF. To be noted: MIF 115 aa; ATGen. The method, then: A molecular interaction between each of the RNA aptamers and each of fusion proteins, i.e., a binding ability of each of the RNA aptamers to each of the fusion proteins was analyzed using surface plasmon resonance. The analysis of the binding ability was performed using BiacoreX (GE Healthcare UK Ltd.) according to the instruction thereof. Specifically, first, polyadenine having 20 bases was added to the 3′-end of the RNA aptamer. Thus, polyadenine-added RNA aptamer was prepared. This was then heated at 95° C. for 5 minutes and rapidly cooled on ice. Biotinylated polythymine having 20 bases obtained by biotinylating the 5′-end of polythymine had been bound to a streptavidin chip (Sensor chip SA, GE Healthcare UK Ltd.). The polyadenine-added RNA aptamer was introduced into a flow cell on the streptavidin chip using a running buffer. At this stage, the polyadenine-added RNA aptamer was immobilized on the chip via the biotinylated polythymine by complementary binding between poly A of the polyadenine-added RNA aptamer and the biotinylated polythymine. The polyadenine-added RNA aptamer was caused to bind to the biotinylated polythymine until a resonance unit (RU) (resonance unit; 1 RU=1 pg/mm²) reaches 700 RU. Subsequently, HBS (Hepes Buffered Saline) containing the fusion protein with a predetermined concentration was introduced into the chip using a running buffer, and a signal (RU) was measured. The composition of the running buffer includes 10 mmol/L HEPES (4-(2-hydroxyethyl)-1-piperazine ethanesulfonic acid), 150 mmol/L sodium chloride, 0.1 mmol/L magnesium acetate, and 0.01% Tween (registered trademark) 20 (pH 7.2). As a control, an introduction of the fusion protein and a measurement of a signal were performed in the same manner as described above using a chip to which biotinylated polythymine had been bound, on which no polyadenine-added RNA aptamer had been immobilized.
A binding ability of each of the RNA pools in the respective rounds to His-MIF was analyzed by surface plasmon resonance in the same manner as in “1. (4) Molecular interaction analysis” of Example 1. […] N40 (control RNA) also was analyzed in the same manner as mentioned above.
For orientation: Surface plasmon resonance follows binding to a sensor surface in real time, without labels.

Experimental findings from US20120129720, “APTAMER THAT RECOGNIZES PEPTIDE” (KANAGAWA PREFECTURAL HOSPITAL ORGANIZATION, published 2012) are described below.

B1: #730 (ssRNA)
RNA: GGGACGCUCACGUACGCUCAUUCGACCGGGUUAUUGGCUGCUCUCCUCUGGUUUGUGAUGUCAGUGCCUGGACGUGCAGU
modifications: 3' A20 tail for capture
Turning to B1, the binding result in data set [1] is “binds”.

B2: #701 (ssRNA)
RNA: GGGACGCUCACGUACGCUCACCGGGUUAUUGGCGCAAUAUUGGUAUCCUGUAUUGGUCUGUCAGUGCCUGGACGUGCAGU
modifications: 3' A20 tail for capture
In turn, B2 returned a binding signal in data set [2] of 1.32 His-MIF/RNA bonds.

B3: #723 (ssRNA)
RNA: GGGACGCUCACGUACGCUCAGGUUAUUGGCGCCCUCGAACCAAAAUGGAUGCCGGGAAUGUCAGUGCCUGGACGUGCAGU
modifications: 3' A20 tail for capture
In the case of B3, the binding result in data set [1] is listed as “binds”.

B4: #7004 (ssRNA)
RNA: GGGACGCUCACGUACGCUCAGGCGUUCUUCGCUGUAGUUCCGGUUUAUUGGUCUUUGUUUUCAGUGCCUGGACGUGCAGU
modifications: 3' A20 tail for capture
With B4, in data set [1], the binding result was “binds”.

B5: #715 (ssRNA)
RNA: GGGACGCUCACGUACGCUCAUAGAGUGUAUUUGUACCAGGUAUACUGGCGCGAACGAAUGUCAGUGCCUGGACGUGCAGU
modifications: 3' A20 tail for capture
Regarding B5, the binding result in data set [1] is “binds”.

B6: #7029 (ssRNA)
RNA: GGGACGCUCACGUACGCUCACGAAAUCCAGGUUUGAUUGGCGUGGCACCCUUGCCAAGUGUCAGUGCCUGGACGUGCAGU
modifications: 3' A20 tail for capture
Turning to B6, in data set [1], the binding result is listed as “binds”.

B7: #7062 (ssRNA)
RNA: GGGACGCUCACGUACGCUCAUCUCGCCGCAUUUCCAGGUUUUUUGGCGCUUAUGAAUGAUCAGUGCCUGGACGUGCAGU
modifications: 3' A20 tail for capture
As for B7, the binding result in data set [1] is reported as “binds”.

B8: #7009 (ssRNA)
RNA: GGGACGCUCACGUACGCUCAUGAUUGAAUGGGCGAAUCGACCUUACCGGUUUUCUGCAACUCAGUGCCUGGACGUGCAGU
modifications: 3' A20 tail for capture
As for B8, in data set [1], the binding result is “binds”.

B9: #718 (ssRNA)
RNA: GGGACGCUCACGUACGCUCACUUCUUUCCCACUCACGUCUCGGUUUUAUUGGUCCAGUUUUCAGUGCCUGGACGUGCAGU
modifications: 3' A20 tail for capture
B9 returned a binding signal in data set [2] of 0.75 His-MIF/RNA bonds.

B10: #736 (ssRNA)
RNA: GGGACGCUCACGUACGCUCACCUCAAGUCGGGUCUAUUGUCUCCGGCGAAGCAUGGACUGUCAGUGCCUGGACGUGCAGU
modifications: 3' A20 tail for capture
As to B10, the binding result in data set [1] is reported as “binds”.

B11: #7008 (ssRNA)
RNA: GGGACGCUCACGUACGCUCAUUGUCUUGGUGUAUUGGUUACUGUCCAAUGGGCGGUGUAUUCAGUGCCUGGACGUGCAGU
modifications: 3' A20 tail for capture
In the case of B11, in data set [1], the binding result was “binds”.

B12: #7049 (ssRNA)
RNA: GGGACGCUCACGUACGCUCACGCUCAGGUGAAUUGGUUACGUUUUCUCUGACAAUGUGGAUCAGUGCCUGGACGUGCAGU
modifications: 3' A20 tail for capture
For the molecule B12, in data set [1], the binding result was “binds”.

B13: #748 (ssRNA)
RNA: GGGACGCUCACGUACGCUCAGCGCUUCUCGUUUGCUUUCCGGGUUCAUUGGUCCAUGUUUUCAGUGCCUGGACGUGCAGU
modifications: 3' A20 tail for capture
With B13, the binding result in data set [1] is recorded as “binds”.

B14: #714 (ssRNA)
RNA: GGGACGCUCACGUACGCUCAGGUUUAUUGGUGCCGUGUAGUGGAAUAUCAGUGCCUGGACGUGCAGU
modifications: 3' A20 tail for capture
Consider B14, for which the binding signal in data set [2] was 1.01 His-MIF/RNA bonds.

B15: #725 (ssRNA)
RNA: GGGACGCUCACGUACGCUCACAUGUCCGGGUGGAUUGGAUCGAUUACUUGUUUUCGUUUAUCAGUGCCUGGACGUGCAGU
modifications: 3' A20 tail for capture
Turning to B15, the binding result in data set [1] is “binds”.

B16: #746 (ssRNA)
RNA: GGGACGCUCACGUACGCUCAGGUGAAUUGGCACUUCUUUAUCUACGGAUCGAGUCGGAUGUCAGUGCCUGGACGUGCAGU
modifications: 3' A20 tail for capture
The molecule B16 showed a binding signal in data set [2] of 0.5 His-MIF/RNA bonds.

B17: #727 (ssRNA)
RNA: GGGACGCUCACGUACGCUCACUCAGGUGAUUGGCGCUAUUUAUCGAUCGAUAAUUGAAUGUCAGUGCCUGGACGUGCAGU
modifications: 3' A20 tail for capture
The molecule B17 returned a binding signal in data set [2] of 1.05 His-MIF/RNA bonds.

B18: #733 (ssRNA)
RNA: GGGACGCUCACGUACGCUCACUUCCCUAGACCCUCCAGGUUACAGGCGCCGCCCGGAAUGUCAGUGCCUGGACGUGCAGU
modifications: 3' A20 tail for capture
B18 showed a binding signal in data set [2] of 0.86 His-MIF/RNA bonds.

B19: #704 (ssRNA)
RNA: GGGACGCUCACGUACGCUCAUGUUCCUUUGGGUUAUUGGCUCCUUGUUGACCAGGGGAUGUCAGUGCCUGGACGUGCAGU
modifications: 3' A20 tail for capture
In turn, B19 returned a binding signal in data set [2] of 0.96 His-MIF/RNA bonds.

B20: #743 (ssRNA)
RNA: GGGACGCUCACGUACGCUCAACACUUGCUUUUUCUUGUCCGGGUUUAUUGGUCGUUGUAUUCAGUGCCUGGACGUGCAGU
modifications: 3' A20 tail for capture
With B20, in data set [1], the binding result was “binds”.

B21: #713 (ssRNA)
RNA: GGGACGCUCACGUACGCUCACAACACUCGAAGGGUUUAUUGGCCCCACCAUGGUGGAAUGUCAGUGCCUGGACGUGCAGU
modifications: 3' A20 tail for capture
Regarding B21, in data set [2], the binding signal stood at 0.88 His-MIF/RNA bonds.

B22: #745 (ssRNA)
RNA: GGGACGCUCACGUACGCUCAGAGCCACGGGUUUACUGGCGCUAAACAAAUGUUUAGGAUGUCAGUGCCUGGACGUGCAGU
modifications: 3' A20 tail for capture
B22: the binding result in data set [1] is “binds”.

B23: #7015 (ssRNA)
RNA: GGGACGCUCACGUACGCUCAUGUCUCGGUUUAUUGGCGGUCGGACUUUUGCCCUGCGAUGUCAGUGCCUGGACGUGCAGU
modifications: 3' A20 tail for capture
Consider B23, for which the binding result in data set [1] is listed as “binds”.

B24: #7052 (ssRNA)
RNA: GGGACGCUCACGUACGCUCAAUUCUGUUCUGUCUCUCCGGGUUUACUGGCGCUAUGAAUGUCAGUGCCUGGACGUGCAGU
modifications: 3' A20 tail for capture
In the case of B24, in data set [1], the binding result is listed as “binds”.

B25: #708 (ssRNA)
RNA: GGGACGCUCACGUACGCUCACGGUUAUUGGCGGAGGAUCUGUCAUGGCAUGCCUCGACUGUCAGUGCCUGGACGUGCAGU
modifications: 3' A20 tail for capture
For B25, the binding signal in data set [2] amounted to 1.16 His-MIF/RNA bonds.

B26: #707 (ssRNA)
RNA: GGGACGCUCACGUACGCUCACGGUGGAUUGGCGACGAUGACCUUGAUAGUCCUCGUAAUGUCAGUGCCUGGACGUGCAGU
modifications: 3' A20 tail for capture
As for B26, in data set [1], the binding result is reported as “binds”.

B27: #719 (ssRNA)
RNA: GGGACGCUCACGUACGCUCAGCUCUCUUACUUCCUGGGUGACUGGCUCUUUCGGGGUAUGUCAGUGCCUGGACGUGCAGU
modifications: 3' A20 tail for capture
Turning to B27, in data set [1], the binding result is listed as “binds”.

B28: #7034 (ssRNA)
RNA: GGGACGCUCACGUACGCUCAAAAUGCUGUUGCAGGUUAUUUGGCUCUCGGUCUGAGAAUGUCAGUGCCUGGACGUGCAGU
modifications: 3' A20 tail for capture
Regarding B28, in data set [1], the binding result is “binds”.

B29: #7054 (ssRNA)
RNA: GGGACGCUCACGUACGCUCAAAGUGUCUGCAAGUCUACCGGUUUAUUGGCCACUCCGUUUUCAGUGCCUGGACGUGCAGU
modifications: 3' A20 tail for capture
Regarding B29, the binding result in data set [1] was “binds”.

B30: #7007 (ssRNA)
RNA: GGGACGCUCACGUACGCUCAGAGAUCGUUCUGGUUAUUGGCGCCUUCUGAUAAAGGAAUGUCAGUGCCUGGACGUGCAGU
modifications: 3' A20 tail for capture
Regarding B30, the binding result in data set [1] is given as “binds”.

B31: #7030 (ssRNA)
RNA: GGGACGCUCACGUACGCUCAAUGAGCUCACCUGGGUAAUUGGCGCCAAUUCAAGGGUCUGUCAGUGCCUGGACGUGCAGU
modifications: 3' A20 tail for capture
B31: the binding result in data set [1] is reported as “binds”.

B32: #716 (ssRNA)
RNA: GGGACGCUCACGUACGCUCACCUGUUUUGUCUAGGUUUAUUGGCGCUUAUUCCUGGAAUGUCAGUGCCUGGACGUGCAGU
modifications: 3' A20 tail for capture
With B32, the binding signal in data set [2] turned out to be 0.99 His-MIF/RNA bonds.
